Assay: soluble on expression in E. coli; label from the status in PepcDB or PDB records

Sequence | soluble on expression in E. coli
MKSEEAYSILDIVSESEGQGVVLTRSGSICVSFELREPECYSLTPEDIDRRDGMFREAFKFLPDGTYVHKQDVFLKERYCPDIAGGSFLDRADARHFRGRLYVSHTCVMHFVLSGLKSLEKAYISSPLSYKENLHKEDLARLDEFLEGVDNAVGIIRSMRDTEIAPMSGQEMRDFTAGYTTLFDAPGAVVDIHADTELRTGKKRARCFAVCDEIFLPDGSLDSCVRDDSLPPAGSLLYHPMLERLGMYLPYNHIVNQVVFFEGNGRLRERIARNIDIYGSNSGMSRSIKVQYQKLDELQQEILEENETLVRSFFSVCVFDESEAELEKADKKIRETLNLARLGYYIPGYENLAAVHFACVPGQIHLMPRKYLFLTTLPIALCFFLQCGSFRNDSEGIYVHDRMYQVPLRKDIWDAGKKRVNARNGMVIAGTGGGKSAFTLNLTQQLIEQDYTVVVVEFGKSFSQLCRLYPDISLHVDYDGRTALGINPFDLQGEELDNGSIEMLSGVVQKYWRHMFTKDESEKEVALTRFIQDYYENVREGHNFESFYNHVTEHYPEILARKHIPKDYFSLESFSLNCGEFLPGRRYENVCKDTGTDFSGKRFIVFELTQIKQDRFLSNLVMGMIFTVIQKKLLSDRRKRGVLIFDEYGETAQMVDTATGTGIHSSVAFCYQKIRKENGAVYTIIQNPDQLPENEHTKNIIANTDMLFVLPTKEVIYQSVIDRFRLTHPGQIALMKSMRNNFSGQRPYSECFMRLGEHYATVTRLEFSREKFLAFQTEGEIWSDLEEKNRRMSMEDAIEEYIREHQ | not soluble
LSFYHPEDRETVSDAVDAALNDGDPYDLEVRLITARGNHRWVRTRGKRVEGAEKPTVRGFIQDITEQKER | not soluble
MRWNICVVGAGKIGQMIAALLKTSSNYSVTVADHDLAALAVLNRMGVATKQVDAKDEAGLAKALGGFDAVISAAPFFLTPIIAKAAKAAGAHYFDLTEDVAATNAVRALAEDSQTAFMPQCGLAPGFVGIAGAALAAEFDEIDSLHMRVGALPLYPTNALKYNLTWSTDG | not soluble
MKKYDVIVVGAGISGLLAALTLSKHGKKVLVLEKGQHLGGNCNSYIVDGYQVDTGAHAITHLIEGPLPRLMDNYFDFLPVFEDYGYYYVRTENALIKVPSNLKDFVTFDVLPRKDRLILSQTLTKALTLSSFGIDLSDQSVYDFLPKNLCKDTYDFVNTISAFLSGKSMKETSAQRILSGSSFVRDSITQEQFDAMIGKFEPKKRQSTESILSSILPYHLHASLQARVDKVAQPFTSLERLATNKVNYSQGYPRKGLKALLNAILYSFPDTVEIKSECEVTGILVESEKVYGVEADEIYLADLIIYTGFATDLPELIKDLPQAYIEELKGIVHTKSLTIWLGLKEELPEFKYTGSEIWFKDFAYWAMPISNYDPSLAPKDKQLVGFSFVIDSEQTEEHELKKAYDTIFRALPNIEKYIDMQHEQIMIPEKAAVTINGKFSDIRTPVKNLYIAGTDTDRRSMGITRAAYSIIELLKILNEDGNLHLEHHHHHH | not soluble
MGSDKIHHHHHHMSLANRYEFVYLFDVSNGNPNGDPDAGNLPRLDPETNQGLVTDVCLKRKLRNYVALEKENEPGFAIYMQEKSVLNHQHKRAYEALSLEPEPKKLPKDQAKARELTAWMCKNFFDVRAFGAVMTTEVNAGQVRGPIQLTFATSIDPVVPLEVSITRMAVTNDKDLEKERTMGRKHIVPYGLYRAHGFVSAKLAERAGFGEEDLQLLWRGLINMFEHDRSAARGEMTARKLIAFKHECALGNAPAHRLFDSVRVSRADGAGDSPARGFTDYRVELDRAVLPAGVEVLELL | not soluble
MFDPKMLSVEFRNGITDEKPIEGRKYTLTHNDDTGELFLTVALAYAYDKINSSARDEVFGVWKRGNNRFILKIYLYVDGNQGREEAIKRDRIFRKELPLALAAIAYGDRKFLDDNDDLLNSNIIVRFISAYEELNKIENYGTLKDYLEHHHHHH | soluble
MPDDKAVNGRRDFLRKTLTVIPAVTLAGYGVGHAMQTPAAEQDKPRERYQPRFFTNTEWAFVNAAVARLIPSDDNGPGAIEAGVPEFIDRQMETPYGHGALWYMQGPFVTDAAPEFGHQLKLVPRDIYRVGIAALERWSKANQGKPFAELEPSAQDDILQRLEAGQIDLQDLPAKLLFGQLLQNTHEGFFSDPQHGGNRGLVGWKLVGFPGARADFMDWADRGEKYPFPPVAISGERG | not soluble
MGSDKIHHHHHHMIIDTHIHAYPTSDDSKMTLEEIVAQARIIGLDGICITDHDSNEIMARAHEYRKQMGYPIFVGAEVFTWEGDVIVFGLERLPEERVSARYLLDLVNKANGVAISAHPFRQNNRGMGNSIREHKDLHGVEAFNGSTDHANNMKACDLAMELGIPVFGASDAHNTEALGKFATVFPNGLKDEKDLIEAIKMGKVYPVAYNHSADAKWTVIPPIG | not soluble
MCLDKMTDIRVRGYKSISFWQEEGIGLIVIRSDSHGRFDLNTLGEITAAIGIAAMDGSVRAVALTGMNNIFGRQLVIGQLSNNTVYNVMQSSSSLISMIYTFEKPIFSILNGDAIDEGYEIALLADRIISADDIKVGFSRDYEFKIGGSFTSLRMTKTDISGPAEGINVDRVVKHESLLEDAKNIIKETADINFPMRRRQRYRYISELINAEKINFYEHYLARS | not soluble
GPGSMAETTIGFRCQDFVLVAAAGLNAFYYIKITDTEDKITELDSHKVVACAGENGPRTHFVEYVKCNMALKKMREHGRMISTHATASFMRNTLAGALRSRDGLYPVNCLLAGFDVPASAEDDVATGAHLYYLDYLGTLQEVPYGCHGYGAPFVTAMLDRMWRPNLTAQEGVELMQKCCDEVKKRVVVSNNTFICKAVTKDGVERVQSVS | soluble
MGSDKIHHHHHHMNIQSIEPTPSPNTMKLTLDQTLPQGKSNNYTLKNKEEAPPFIQKLFEIEGVKGVYHVADFLAIERNAKVDWKVILPKVRAVFGDETGDGPQKEKPEVQEGYGEVQVFLQLFKGIPMQIKLSNGEEEVREGLPERFANAAFAAQQPDDNVVLERKWVEQGVRYGELADVAKDVAEEVSAAFSQERLDRLVNIAKGLVDKTQEQTEERFRKVTLADMEQDDWRDRYAALDKMDPTEEDLPVLEKALQDEKASIRRLATVYLGMIEKPVVLPLLEKALKDPSVTVRRTAGDCMSDIGDPAAIPAMIEALKDKNKLVRWRAAMFLYEVGDETAIDALRLAEDDPEFEVAMQVKMALERIVGGEEAKGSVWKQMTEEMAKGKNE | not soluble
MRIGPELLQDLLDRVEGSLAAAIGTADGLLVEGVRKRPLDLEAAIAEHAALWRQARAAYARSLGAEEVGELLVGGTGVVGYLRSMRTRDPEPLFLLLLLTPEANLGQARLAARRLLDRAGGVVAWPT | soluble
MSLEQPGQPPAHSLVSLRGSGHHVAIVDRSDGRLLGTIDSARAASQVHPGAVYLHQGETFVIEELDDQVALAVPDQPDYQTFARSTTDIRIVGEVDKVCNPAPGLWVSNLVVEVTDRVVGYTMKASDGSVLAMVPLQMPPQTLVTRAVAYTVDPLVLDSLGITDVPGALHAAEHAAIGLLPLIATCDRWDIGGVSTAEHPDTGLPTVFVYDGHPGGAGFADCGYERFPEWVATTFEAIRSCQCESGCPSCVQSPKCGNGNDPLSKEGAIALLGAMCTMLGVTEGHHHHHH | not soluble
GAMGSSRKSKAELQSEERKRIDELIESGKEEGMKIDLIDGKGRGVIATKQFSRGDFVVEYHGDLIEITDAKKREALYAQDPSTGCYMYYFQYLSKTYCVDATRETNRLGRLINHSKCGNCQTKLHDIDGVPHLILIASRDIAAGEELLYDYGDRSKASIEAHPWLKH | soluble
MGSDKIHHHHHHMREAVMCRFVAYLGRPTLLENVLVRPKNSIIMQSLHARETKYRTNGDGFGLGWYSPEVSSDPALFTSVYPAWNDRNLLHLTAKIQSPCFFAHVRSASAGGVTNYNCHPFIYGDWMLMHNGEINDFIDVKRHIRHLLDDDIYHWVKGQTDSEHLFGLFLQLAKGRDITQLSVAADVLQETINKILEVIGQFGHSGPSYFNICLTNGKKIIATRYCSHEKKKPLTLHYLIGYVLSTQGLWIKEEGNPAYVVVSSERLNDLDEGWEDVPPQHMILIDENKNIQLRPLQTLG | not soluble
MSLGFIDAQREHFGVESICKALQVAPSGYWRRAARRSNPALLPARAKGDAELVPQIERVWTSNLQVYGYRKVWRQMLREGTAVARCTVERLMRLKGLQGARRGKKILTTVPDAKAPCPLDRVNRQFKADKPNQLWVSDFTYVSTWQGMVYVAFVVDVYARFIVGWRVSRSMRTDFVLDALEQALYARKPERDGALIHHSDRGLQYVSIRYSERLAEAGIEPSVGSKGDSYDNALAETINGLYKTELIHRRAPWKSKEAVELATLEWVSWFNHHRLMESLGYIPPAEAEANYHWQLAGQAMSVEGHHHHHH | not soluble
KFVSDVEKEMETLVEAVNKGKNSKKSHSFPPMNRDHRRIIHDLAQVYGLESVSYDSEPKRNVVVTAIR | soluble
MGSDKIHHHHHHMALIITKKAADLPKPKKPVIGLALGSGAAKGWAHIGVLNGLAKLGIFPDKVAGCSVGALVGAAYANDNLDEIEKWVRGFSSWDVLGLMDIRWRKGGIINGEKVFEVLSSRVGALKIEQLKRAFAAVATDLYSGQEIWFREGDLRHAVRASCSMPGFLPPVQQDDRWLVDGAVVNPVPVSLCRAMGVDLVIAVDLNGHRRGQMMMLPEQVVSHQAEKSQTVTEKPQLESGFMDLWGKSKEYLSGLTEKFSLGVNSHPGMLAVMSQSMDILEQRHKRARLMGDPPDICIVPQVFDIGTMEFHRAAEAIAAGEQAVENISHLLKASIGDFDSAPQR | not soluble
MGSDKIHHHHHHMINIIICEGKKSERVILNDYINTFFYNYNFEYNIKEFENGGDLLKKYPNNVDIIFMDIDLNDENGFNVSKEIKKFDESVRIIFVSSSNKYIKKGYEIGVYRYLEKPLKYSLFKEAISSYLKECYKNEAILSIKCKCKIYFIKVDDILYLEVLKNDLTIHTEKGIYTFKSSMKEIESNLEEHNFFRCHKSYLINLMKVNMLDIENNIVFINQNSIIVSRYKIKLLREKLNSCLVDVII | not soluble
MALKKAMLLIKNGKILTMTGVNYDSGSVLIDNGKIIKVGENIDVDESCEIIDADGFWVMPGIIEAHCHVGIQEEKRGFEGNDCNEMTNPVTPYLRALDGINPMDSAFYTALTAGITGIMVGPGSANVVGGQWMFLKTYGRAIDKMVVLQPSAMKIAFGENPKANYDKKNMMPSTRIAIAAMLREELFEAQQYYEKRKNAEKSGDSFNKEFRKECWVPVFDKKIPLKAHVHRADDILTAIRIAKEFNLNLTLDHCTEGHLVAKEIKESGFPAIVGPTLTSRNKIETQYADFKTAGILHNEGVKVAITTNHPVTRIQDLLICAGLAAKEGLGIEEGLKAITINPAEICNVANRVGSIEVNKDADIAIFDGNPMETFTKTMYTIINGEIVYSLKDKNYEGHHHHHH | soluble
MTMDTAQLKSQIQQYLVESGNYELISNELKARLLQEGWVDKVKDLTKSEMNINESTNFTQILSTVEPKALEMVSDSTRETVLKQIREFLEEIVDTQ | soluble
MILVGDGEDLEPPDDFLRREVADSVLNLLGDYRFLTKGYFVSLHAEENGCEVFPPVKNALDAYRAPLFMNAVRKLGLETPEFSIRSEPKFERGVLLPLNPFSKNSAKVVKTSHQYAKAFKRLSMNRYPVVQVKSEKYDSFNLYLWRADKEEYNFIAEKIFKGLRIPLGKVLVDVTDGMAKPFYFMPVEKGEINLRLVFEVLYENCLLR | not soluble
MGSDKIHHHHHHMLLRKDEVFYIDLPRKIEKEEKVKEEKTKENAAEEIQRIEKMREKILSEAQEEARKIIEGARKDAEEILSNASSEAEALKLEAKKVLEEAKTMKNDFQKYILALKEKIQKQVNQRIEEILPELLDILRILFKKILEKEMDESTVERKLRSALSKVVGIKNVKIRINPEDAKKLDLSEVSKETLIPDPNVERGGVIVETDFGILDKTFSHQWELVEDIFEEVVGFEGHPERAEKEVE | not soluble
